US10844127 (MERUS N V, dated 2020)
Where a chain is given by its changes, count along the chain named. Read-outs that look alike come from different tables or passages of the source. Each block holds one binder with its values, some of them ahead of it.

What was measured:
[1] = biological target: T1, human EGFR ECD-Fc fusion protein (R&D Systems) (human, UniProt P00533 25-645); experiment: phage ELISA, Fab on phage, immobilized EGFR, with competitor ICR10 (Domain I)
T1 construct: extracellular domain; also called rhEGFR-Fc; EGFR-Fc; not shown: Fc part of the bought fusion protein, not described

[2] = biological target: T2, chimeric cynomolgus-human EGFR (cynomolgus ECD, human trans-membrane …, UniProt P55245 25-1210 (rhesus entry)); experiment: FACS, CHO cells transfected with chimeric cynomolgus/human EGFR, IgG at 5 µg/ml
T2 construct: also called cynomolgus EGFR; chimeric cyno-human receptor

[3] = biological target: T1, human EGFR ECD-Fc fusion protein (R&D …); experiment: phage ELISA, Fab on phage, immobilized EGFR, with competitor Cetuximab (Domain III)
[4] = biological target: T1, human EGFR ECD-Fc fusion protein (R&D …); experiment: phage ELISA, Fab on phage, immobilized EGFR, with competitor EGFR.1 (Domain II)
[5] = biological target: T1, human EGFR ECD-Fc fusion protein (R&D …); experiment: phage ELISA, Fab on phage, immobilized EGFR, with competitor MatuzuMab (Domain III)
human EGFR, full length [6] = biological target: T3, human EGFR, full length (human, UniProt P00533 25-1210); experiment: cell-based or functional assay
[7] = biological target: T1, human EGFR ECD-Fc fusion protein (R&D …); experiment: phage ELISA, Fab on phage, immobilized EGFR, no IgG
CHO-delta III = biological target: T4, CHO-delta III; experiment: FACS on CHO cells expressing the domain III swap mutant (CHO-delta III)
T4 construct: also called EGFR HER3 swap varIII ECD; domain III swap mutant
T4 chain: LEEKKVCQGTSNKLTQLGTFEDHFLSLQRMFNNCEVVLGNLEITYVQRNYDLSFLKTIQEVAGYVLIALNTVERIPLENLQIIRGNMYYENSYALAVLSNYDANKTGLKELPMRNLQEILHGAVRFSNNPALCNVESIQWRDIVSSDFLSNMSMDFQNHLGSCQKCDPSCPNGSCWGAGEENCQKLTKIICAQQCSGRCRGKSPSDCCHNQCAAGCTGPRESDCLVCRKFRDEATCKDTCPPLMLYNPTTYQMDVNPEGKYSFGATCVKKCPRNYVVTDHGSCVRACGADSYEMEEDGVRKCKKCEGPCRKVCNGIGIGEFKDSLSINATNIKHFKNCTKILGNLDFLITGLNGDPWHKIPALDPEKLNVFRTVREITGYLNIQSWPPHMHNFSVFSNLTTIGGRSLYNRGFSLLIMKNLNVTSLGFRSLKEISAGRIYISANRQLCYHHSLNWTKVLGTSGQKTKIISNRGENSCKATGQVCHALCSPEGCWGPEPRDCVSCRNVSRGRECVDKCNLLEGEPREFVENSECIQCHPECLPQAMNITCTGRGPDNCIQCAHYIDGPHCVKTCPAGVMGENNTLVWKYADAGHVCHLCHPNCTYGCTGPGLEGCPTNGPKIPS

CHO-delta II = biological target: T5, CHO-delta II; experiment: FACS on CHO cells expressing the domain II swap mutant (CHO-delta II)
T5 construct: also called EGFR HER3 swap varII ECD; domain II swap mutant

CHO-delta IV = biological target: T6, CHO-delta IV; experiment: FACS on CHO cells expressing the domain IV swap mutant (CHO-delta IV)
T6 construct: also called EGFR HER3 swap varIV ECD; domain IV swap mutant

[8] = biological target: T2, chimeric cynomolgus-human EGFR; experiment: FACS, CHO cells transfected with chimeric cynomolgus/human EGFR, IgG at 5 µg/ml; remark: listed apart in the source
human EGFR, full length [9] = biological target: T3, human EGFR, full length; experiment: FACS on CHO cells stably expressing wtEGFR (CHO-wtEGFR)
CHO-vIII = biological target: T7, CHO-vIII (human, UniProt P00533); experiment: FACS on CHO cells expressing EGFR variant III (CHO-vIII)
T7 construct: expressed on CHO cells; also called EGFR variant III

[10] = biological target: T8, mouse EGFR ECD fused to human IgG1 Fc (Sino Biologicals cat. nr. 51091-M02H) (mouse; human, UniProt Q01279 25-647); experiment: ELISA on coated mouse EGFR ECD-human IgG1 Fc
T8 construct: extracellular domain; also called murine EGFR; not shown: human IgG1 Fc

B1: PG3998 (antibody, IgG1, V domains shown)
VH: QVQLVQSGSELKKPGASVKVSCKASGYTFTNNAINWVRQAPGQGLEWMGWINTITGDPTYAQGFTGRFVFSLDTSVSTAYLQISSLKAEDTGVYYCAREEFLEWLFFDYWGQGTLVTVSS
VL: not shown
notes: Mono-specific bivalent full length IgG1 with the common light chain, from 293F cells; also called MF3998; MG3998
- OD [1]: 2.23
- binding result [2]: binds
- OD [3]: 0.101
- OD [4]: 2.34
- OD [5]: 0.671
- EGFR blocking activity compared to cetuximab (inhibition of EGF-induced cell death of A431 cells) (human EGFR, full length [6]): > 100%
- OD [7]: 2.49

B3: PG4289 (antibody, IgG1, V domains shown)
VH: QVQLVQSGSELKKPGASVKVSCKTSGYTFTDYAMTWVRQAPGQGLEWMGWITTNTGDPTYAPGFTGRFVFSLDTSVSTAYLQISSLKAEDTAVYYCARVYHWIRGFEFWGQGTLVTVSS
VL: not shown
notes: Mono-specific bivalent full length IgG1 with the common light chain; also called MF4289; MG4289
- OD [1]: 2.05
- binding result [2]: binds
- OD [3]: 2.22
- OD [4]: 2.23
- OD [5]: 2.36
- EGFR blocking activity compared to cetuximab (inhibition of EGF-induced cell death of A431 cells) (human EGFR, full length [6]): 80%
- OD [7]: 2.28

B5: PG4280 (antibody, IgG1, V domains shown)
VH: QVQLVQSGAEVKKPGASVKVSCKVSGYTLTELSMHWVRQAPGKGLEWMGGFDPEYGKTFFAQNFQGRVTMTEDTSADTAYMELSSLRSEDTAVYYCATEGYYETTTYYYNLFDSWGQGTLVTVSS
VL: not shown
notes: Mono-specific bivalent full length IgG1 with the common light chain; also called MF4280; MG4280
- OD [1]: 2.3
- binding result [2]: binds
- OD [3]: 1.14
- OD [4]: 2.13
- binding result [10]: no binding (tested: 5 µg/ml)
- OD [5]: 0.613
- EGFR blocking activity compared to cetuximab (inhibition of EGF-induced cell death of A431 cells) (human EGFR, full length [6]): 100%
- OD [7]: 2.55

More lines, now with the values ahead:

- binding result (CHO-delta III): no binding
- binding result (CHO-delta II): binds
- binding result (CHO-delta IV): binds
- binding result [8]: binds
- binding result (human EGFR, full length [9]): binds
B2: PG4010 (antibody, IgG1, V domains shown)
VH: B1 VH with I34M, T59S, S77N, G92A
VL: not shown
notes: Mono-specific bivalent full length IgG1 with the common light chain; also called MF4010; MG4010

- binding result (CHO-delta III): binds
- binding result (CHO-delta II): binds
- binding result (CHO-delta IV): binds
- binding result [8]: binds
- binding result (human EGFR, full length [9]): binds
- binding result (CHO-vIII): no binding
B4: PG4003 (antibody, IgG1, V domains shown)
VH: QVQLVQSGSELKKPGASVKVSCKASGYTFPSFAMNWLRQAPGQGLEWMGWITTNTGDPTYAQGFSGRFVFSLDTSVSTAYLQISSLKAEDTAVYYCARVYNWIRGFDYWGQGTLVTVSS
VL: not shown
notes: Mono-specific bivalent full length IgG1 with the common light chain; also called MF4003; MG4003
